# Laboratory results: PMC3102279
# B1: Mps1 (Homo sapiens) (protein)
# chain: MESEDLSGRELTIDSIMNKVRDIKNKFKNEDLTDELSLNKISADTTDNSGTVNQIMMMANNPEDWLSLLLKLEKNSVPLSDALLNKLIGRYSQAIEALPPDKYGQNESFARIQVRFAELKAIQEPDDARDYFQMARANCKKFAFVHISFAQFELSQGNVKKSKQLLQKAVERGAVPLEMLEIALRNLNLQKKQLLSEEEKKNLSASTVLTAQESFSGSLGHLQNRNNSCDSRGQTTKARFLYGENMPPQDAEIGYRNSLRQTNKTKQSCPFGRVPVNLLNSPDCDVKTDDSVVPCFMKRQTSRSECRDLVVPGSKPSGNDSCELRNLKSVQNSHFKEPLVSDEKSSELIITDSITLKNKTESSLLAKLEETKEYQEPEVPESNQKQWQSKRKSECINQNPAASSNHWQIPELARKVNTEQKHTTFEQPVFSVSKQSPPISTSKWFDPKSICKTPSSNTLDDYMSCFRTPVVKNDFPPACQLSTPYGQPACFQQQQHQILATPLQNLQVLASSSANECISVKGRIYSILKQIGSGGSSKVFQVLNEKKQIYAIKYVNLEEADNQTLDSYRNEIAYLNKLQQHSDKIIRLYDYEITDQYIYMVMECGNIDLNSWLKKKKSIDPWERKSYWKNMLEAVHTIHQHGIVHSDLKPANFLIVDGMLKLIDFGIANQMQPDTTSVVKDSQVGTVNYMPPEAIKDMSSSRENGKSKSKISPKSDVWSLGCILYYMTYGKTPFQQIINQISKLHAIIDPNHEIEFPDIPEKDLQDVLKCCLKRDPKQRISIPELLAHPYVQIQTHPVNQMAKGTTEEMKYVLGQLVGLNSPNSILKAAKTLYEHYSGGESHNSSSSKTFEKKRGKK
# B2: Aurora B (Homo sapiens) (protein)
# chain: SNVQPTAAPGQKVMENSSGTPDILTRHFTIDDFEIGRPLGKGKFGNVYLAREKKSHFIVALKVLFKSQIEKEGVEHQLRREIEIQAHLHHPNILRLYNYFYDRRRIYLILEYAPRGELYKELQKSCTFDEQRTATIMEELADALMYCHGKKVIHRDIKPENLLLGLKGELKIADFGWSVHAPSLRRKTMCGTLDYLPPEMIEGRMHNEKVDLWCIGVLCYELLVGNPPFESASHNETYRRIVKVDLKFPASVPMGAQDLISKLLRHNPSERLPLAQVSAHPWVRANSRRVLPPSALQSVA
# Assays:
# [1] = substrate: Nc1ncnc2c1ncn2[C@@H]1O[C@H](COP(=O)(O)OP(=O)(O)OP(=O)(O)O)[C@@H](O)[C@H]1O; experiment: purified protein; format: biochemical, Homo sapiens; conditions: Mg2+
# [2] = substrate: Nc1ncnc2c1ncn2[C@@H]1O[C@H](COP(=O)(O)OP(=O)(O)OP(=O)(O)O)[C@@H](O)[C@H]1O; experiment: purified protein; conditions: Mg2+
Protein,Km [1] [µM],Km [2] [µM]
B1,4.9,–
B2,–,16.5
